Measurements: the supplement of paper PMC10065799, “High-throughput profiling of sequence recognition by tyrosine kinases and SH2 domains using bacterial peptide display” (eLife, 2023)

Key:
Grb2 SH2 = Grb2 SH2 (UniProt P62993); experiment: SH2 binding enrichment of the phosphorylated peptide, bacterial display (enrichment ratio); higher = better substrate or ligand; peptides without Tyr show the background
c-Src SH2 = experiment: as above
SHP2-C SH2 = experiment: as above
EPHB1 = EPHB1 (UniProt P54762); experiment: phosphorylation enrichment, bacterial display (enrichment ratio); higher = better substrate or ligand; peptides without Tyr show the background
Chain of EPHB1 (P54762 whole entry, looked up): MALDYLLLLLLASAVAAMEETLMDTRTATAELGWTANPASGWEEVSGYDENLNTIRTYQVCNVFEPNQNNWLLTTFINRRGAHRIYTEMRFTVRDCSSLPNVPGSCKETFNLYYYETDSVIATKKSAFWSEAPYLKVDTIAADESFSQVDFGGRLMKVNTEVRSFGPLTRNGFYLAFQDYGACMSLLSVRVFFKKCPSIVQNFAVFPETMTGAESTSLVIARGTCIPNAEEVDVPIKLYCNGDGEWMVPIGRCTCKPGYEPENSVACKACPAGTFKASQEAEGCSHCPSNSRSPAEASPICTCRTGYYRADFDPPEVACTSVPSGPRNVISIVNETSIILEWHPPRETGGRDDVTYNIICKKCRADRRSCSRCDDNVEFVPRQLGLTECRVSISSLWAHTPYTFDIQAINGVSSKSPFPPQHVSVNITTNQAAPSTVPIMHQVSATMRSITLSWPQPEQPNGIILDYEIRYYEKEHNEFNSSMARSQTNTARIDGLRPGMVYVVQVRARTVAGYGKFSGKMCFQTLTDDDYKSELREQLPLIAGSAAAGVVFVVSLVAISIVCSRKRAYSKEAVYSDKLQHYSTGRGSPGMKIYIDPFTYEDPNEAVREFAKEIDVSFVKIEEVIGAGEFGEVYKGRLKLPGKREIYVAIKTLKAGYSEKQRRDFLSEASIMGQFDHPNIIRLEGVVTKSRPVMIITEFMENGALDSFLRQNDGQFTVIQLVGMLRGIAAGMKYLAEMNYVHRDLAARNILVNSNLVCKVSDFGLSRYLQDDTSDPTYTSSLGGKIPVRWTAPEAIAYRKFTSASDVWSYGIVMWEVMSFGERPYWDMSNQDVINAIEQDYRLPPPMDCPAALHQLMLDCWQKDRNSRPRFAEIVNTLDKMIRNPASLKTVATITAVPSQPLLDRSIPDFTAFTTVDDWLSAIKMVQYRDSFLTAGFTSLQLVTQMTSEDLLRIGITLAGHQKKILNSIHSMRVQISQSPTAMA

Hck = Hck (UniProt P08631); experiment: as above
Chain of Hck (P08631 whole entry, looked up): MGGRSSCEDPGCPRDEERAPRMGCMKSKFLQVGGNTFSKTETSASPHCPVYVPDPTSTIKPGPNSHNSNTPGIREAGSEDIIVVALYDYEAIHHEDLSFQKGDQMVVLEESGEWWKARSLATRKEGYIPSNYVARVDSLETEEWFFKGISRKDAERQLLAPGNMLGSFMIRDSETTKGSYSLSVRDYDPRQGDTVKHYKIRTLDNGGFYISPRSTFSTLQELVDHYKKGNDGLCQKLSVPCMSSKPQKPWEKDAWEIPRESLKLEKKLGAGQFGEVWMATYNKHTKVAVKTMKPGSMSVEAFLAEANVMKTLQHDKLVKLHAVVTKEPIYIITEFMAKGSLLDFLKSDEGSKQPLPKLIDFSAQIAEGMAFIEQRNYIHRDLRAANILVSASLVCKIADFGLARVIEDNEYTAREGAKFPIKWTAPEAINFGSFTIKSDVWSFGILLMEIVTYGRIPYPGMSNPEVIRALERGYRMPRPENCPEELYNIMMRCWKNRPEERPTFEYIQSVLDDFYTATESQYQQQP

Jak2 = Jak2 (UniProt O60674); experiment: as above
FGFR3 = FGFR3 (UniProt P22607); experiment: as above
Chain of FGFR3 (P22607 whole entry, looked up): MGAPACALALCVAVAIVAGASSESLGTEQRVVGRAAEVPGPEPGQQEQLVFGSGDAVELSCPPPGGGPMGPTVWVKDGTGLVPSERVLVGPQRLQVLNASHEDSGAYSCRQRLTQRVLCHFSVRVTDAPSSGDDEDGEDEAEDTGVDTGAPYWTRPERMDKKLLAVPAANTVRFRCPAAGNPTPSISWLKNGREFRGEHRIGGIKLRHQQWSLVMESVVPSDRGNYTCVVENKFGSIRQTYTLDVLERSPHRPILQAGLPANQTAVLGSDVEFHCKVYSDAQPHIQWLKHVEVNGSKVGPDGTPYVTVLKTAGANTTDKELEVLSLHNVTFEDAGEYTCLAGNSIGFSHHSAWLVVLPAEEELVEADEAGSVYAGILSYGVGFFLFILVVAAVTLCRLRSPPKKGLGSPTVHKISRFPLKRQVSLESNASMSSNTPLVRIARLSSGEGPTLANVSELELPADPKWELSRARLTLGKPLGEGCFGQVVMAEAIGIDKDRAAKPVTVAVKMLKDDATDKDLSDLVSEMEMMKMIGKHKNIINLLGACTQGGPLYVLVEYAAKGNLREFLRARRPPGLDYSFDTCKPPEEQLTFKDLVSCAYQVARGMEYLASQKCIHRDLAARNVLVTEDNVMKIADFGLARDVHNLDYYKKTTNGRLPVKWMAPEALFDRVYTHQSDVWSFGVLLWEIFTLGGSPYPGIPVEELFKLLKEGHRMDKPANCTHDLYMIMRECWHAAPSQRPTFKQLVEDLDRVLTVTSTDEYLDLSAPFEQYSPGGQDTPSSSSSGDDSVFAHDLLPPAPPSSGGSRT

Fer (mouse) = experiment: as above
EPHB2 = EPHB2 (UniProt P29323); experiment: as above
Fyn = Fyn (UniProt P06241); experiment: as above
Chain of Fyn (P06241 whole entry, looked up): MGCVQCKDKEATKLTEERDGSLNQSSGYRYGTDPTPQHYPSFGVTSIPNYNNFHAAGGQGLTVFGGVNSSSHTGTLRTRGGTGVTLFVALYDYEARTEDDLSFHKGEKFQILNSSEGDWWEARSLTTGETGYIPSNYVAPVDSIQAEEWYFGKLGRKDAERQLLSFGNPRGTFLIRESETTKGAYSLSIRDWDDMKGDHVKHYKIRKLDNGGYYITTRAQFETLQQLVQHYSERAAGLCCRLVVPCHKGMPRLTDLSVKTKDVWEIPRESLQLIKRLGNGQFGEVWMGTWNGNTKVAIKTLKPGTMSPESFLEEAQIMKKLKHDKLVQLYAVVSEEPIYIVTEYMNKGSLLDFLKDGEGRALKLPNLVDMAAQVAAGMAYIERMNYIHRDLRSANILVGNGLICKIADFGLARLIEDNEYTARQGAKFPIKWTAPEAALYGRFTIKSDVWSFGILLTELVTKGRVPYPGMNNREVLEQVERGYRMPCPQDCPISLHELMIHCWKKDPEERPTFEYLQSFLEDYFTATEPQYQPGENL

Fes = Fes (UniProt P07332); experiment: as above
Chain of Fes (P07332 whole entry, looked up): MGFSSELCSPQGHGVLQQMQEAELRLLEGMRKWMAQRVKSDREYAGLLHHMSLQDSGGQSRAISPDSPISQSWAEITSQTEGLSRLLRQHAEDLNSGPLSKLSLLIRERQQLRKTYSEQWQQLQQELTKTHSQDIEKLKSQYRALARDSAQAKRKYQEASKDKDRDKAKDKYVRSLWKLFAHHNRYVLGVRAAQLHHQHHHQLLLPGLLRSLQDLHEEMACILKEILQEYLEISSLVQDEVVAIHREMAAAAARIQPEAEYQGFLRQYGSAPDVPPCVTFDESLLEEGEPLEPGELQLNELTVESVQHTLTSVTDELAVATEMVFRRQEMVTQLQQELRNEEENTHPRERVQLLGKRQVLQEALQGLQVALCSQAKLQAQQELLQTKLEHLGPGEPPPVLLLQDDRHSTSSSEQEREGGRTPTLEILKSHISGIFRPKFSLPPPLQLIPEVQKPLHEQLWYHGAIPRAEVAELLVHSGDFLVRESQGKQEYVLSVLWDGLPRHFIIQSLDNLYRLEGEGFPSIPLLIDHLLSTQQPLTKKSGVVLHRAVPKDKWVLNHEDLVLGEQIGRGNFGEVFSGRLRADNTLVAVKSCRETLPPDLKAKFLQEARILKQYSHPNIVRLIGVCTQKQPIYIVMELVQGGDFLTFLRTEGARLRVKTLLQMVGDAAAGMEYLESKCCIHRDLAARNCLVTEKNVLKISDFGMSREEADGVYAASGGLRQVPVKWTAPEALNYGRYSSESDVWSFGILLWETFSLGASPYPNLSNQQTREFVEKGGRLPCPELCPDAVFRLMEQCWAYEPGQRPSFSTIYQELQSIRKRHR

c-Abl (mouse) = experiment: as above
MERTK = MERTK (UniProt Q12866); experiment: as above
Chain of MERTK (Q12866 whole entry, looked up): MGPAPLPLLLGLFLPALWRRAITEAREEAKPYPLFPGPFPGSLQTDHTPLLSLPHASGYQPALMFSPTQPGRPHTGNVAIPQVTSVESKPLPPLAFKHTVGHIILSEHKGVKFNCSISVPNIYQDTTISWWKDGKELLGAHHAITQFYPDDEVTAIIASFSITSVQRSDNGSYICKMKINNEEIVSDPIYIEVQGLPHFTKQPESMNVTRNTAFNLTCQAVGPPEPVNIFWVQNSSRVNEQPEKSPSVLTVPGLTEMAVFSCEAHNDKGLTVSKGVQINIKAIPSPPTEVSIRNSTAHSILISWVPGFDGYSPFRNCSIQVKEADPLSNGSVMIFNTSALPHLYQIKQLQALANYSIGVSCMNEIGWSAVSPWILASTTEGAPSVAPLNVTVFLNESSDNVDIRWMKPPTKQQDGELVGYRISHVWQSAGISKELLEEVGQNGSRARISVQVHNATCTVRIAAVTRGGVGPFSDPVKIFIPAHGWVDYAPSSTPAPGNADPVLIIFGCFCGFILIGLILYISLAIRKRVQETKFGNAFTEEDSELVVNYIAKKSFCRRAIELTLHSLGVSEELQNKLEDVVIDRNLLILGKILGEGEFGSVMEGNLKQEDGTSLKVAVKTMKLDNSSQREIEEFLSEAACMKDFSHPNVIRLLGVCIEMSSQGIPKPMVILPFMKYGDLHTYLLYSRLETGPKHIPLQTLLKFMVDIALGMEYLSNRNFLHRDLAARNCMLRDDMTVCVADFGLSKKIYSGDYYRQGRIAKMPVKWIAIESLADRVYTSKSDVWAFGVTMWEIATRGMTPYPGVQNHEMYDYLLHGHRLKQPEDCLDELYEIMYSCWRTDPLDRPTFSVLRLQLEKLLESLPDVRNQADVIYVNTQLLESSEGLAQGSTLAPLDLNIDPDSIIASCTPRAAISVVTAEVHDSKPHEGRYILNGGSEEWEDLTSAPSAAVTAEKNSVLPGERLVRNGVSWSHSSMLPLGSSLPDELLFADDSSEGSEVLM

c-Src = experiment: as above
FGFR1 = FGFR1 (UniProt P11362); experiment: as above
AncSZ = experiment: as above
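Wherever SH2 binding enrichment of the phosphorylated peptide, bacterial display is given: peptide library displayed on the E. coli surface as eCPX fusions, selected cells deep-sequenced, score is each peptide's frequency after selection divided by its frequency in the input.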
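Wherever phosphorylation enrichment, bacterial display is given: 11-residue human phosphosite peptides and single-mutation variants displayed on the E. coli surface, counted by deep sequencing, each peptide's frequency after selection divided by its frequency in the unselected input library; frequency after pTyr selection over input frequency; kinase dosed for 20-30% of maximal phosphorylation in three min.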

Chain of Grb2 SH2 (P62993 whole entry, looked up): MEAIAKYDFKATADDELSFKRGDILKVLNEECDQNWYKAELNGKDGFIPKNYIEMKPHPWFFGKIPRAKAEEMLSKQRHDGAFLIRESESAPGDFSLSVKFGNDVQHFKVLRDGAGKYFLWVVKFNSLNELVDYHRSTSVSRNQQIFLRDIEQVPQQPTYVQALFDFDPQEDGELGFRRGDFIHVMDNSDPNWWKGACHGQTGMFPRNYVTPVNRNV

Sequence | SH2 binding enrichment (Grb2 SH2) | SH2 binding enrichment (c-Src SH2) | SH2 binding enrichment (SHP2-C SH2) | phosphorylation enrichment (EPHB1) | phosphorylation enrichment (Hck) | phosphorylation enrichment (Jak2) | phosphorylation enrichment (FGFR3) | phosphorylation enrichment (Fer (mouse)) | phosphorylation enrichment (EPHB2) | phosphorylation enrichment (Fyn) | phosphorylation enrichment (Fes) | phosphorylation enrichment (c-Abl (mouse)) | phosphorylation enrichment (MERTK) | phosphorylation enrichment (c-Src) | phosphorylation enrichment (FGFR1) | phosphorylation enrichment (AncSZ)
KVKGEYDMTVP [AHNAK_Y964] | 0.756 | 0.499 | 0.692 | 0.491 | 0.443 | 0.543 | 0.607 | 0.637 | 0.36 | 0.434 | 0.744 | 0.372 | 0.463 | 0.414 | 0.469 | 0.669
KVKPIYFRTQG [AR_Y916_H918R] | 1.63 | 1.51 | 1.76 | 0.356 | 0.495 | 0.491 | 0.448 | 0.477 | 0.396 | 0.404 | 0.644 | 0.626 | 0.401 | 0.454 | 0.475 | 0.701
KWHREYNFKYV [RICTOR_Y835_S837F] | 1.49 | 1.22 | 1.35 | 0.454 | 0.397 | 0.693 | 0.564 | 0.357 | 0.392 | 0.394 | 0.786 | 0.528 | 0.376 | 0.38 | 0.358 | 1.04
KYVKMYDNHQL [MYO9A_Y203] | 0.808 | 1.3 | 0.76 | 0.481 | 0.489 | 0.51 | 0.432 | 0.441 | 0.448 | 0.46 | 0.726 | 0.696 | 0.544 | 0.418 | 0.557 | 0.552
LAAAGYDVKKN [H1-3_Y72_E75K] | 0.66 | 0.323 | 0.734 | 0.355 | 0.288 | 0.381 | 0.331 | 0.305 | 0.249 | 0.319 | 0.591 | 0.414 | 0.28 | 0.324 | 0.383 | 0.414
LAEMNYVHQDL [EPHB1_Y740_R743Q] | 0.983 | 0.445 | 0.923 | 1.37 | 0.51 | 0.744 | 1.01 | 0.716 | 0.72 | 0.674 | 1.22 | 0.533 | 0.46 | 0.411 | 0.581 | 1.12
LAVNPYGPPDL | 0.89 | 0.515 | 0.873 | 0.846 | 0.682 | 1.03 | 0.911 | 0.77 | 0.408 | 0.708 | 1.23 | 1.32 | 0.517 | 0.611 | 0.798 | 1.36
LCHELYNTIRD [PBRM1_Y54_V49L] | 1.21 | 4 | 1.04 | 0.675 | 6.12 | 2.44 | 0.905 | 0.869 | 0.785 | 1 | 1.03 | 0.929 | 0.796 | 3.39 | 0.973 | 1.21
LDFNEYFRDLN [HPRT1_Y198_YF] | 1.01 | 0.552 | 0.604 | 0.442 | 0.486 | 0.998 | 0.697 | 0.382 | 0.461 | 0.465 | 1.15 | 0.606 | 0.423 | 0.473 | 0.513 | 1.24
LDLPGYCLLRE [CCDC116_Y291_P293L] | 0.686 | 0.661 | 0.674 | 1.88 | 0.636 | 2.21 | 1.39 | 1.63 | 1.28 | 0.908 | 2.21 | 1.65 | 0.765 | 0.736 | 1.03 | 1.82
LDLSFYPTSSS [EMD_Y182_YF] | 0.698 | 0.417 | 0.686 | 1.33 | 0.89 | 0.976 | 0.902 | 0.799 | 0.904 | 0.968 | 1.77 | 1.69 | 0.596 | 0.404 | 0.991 | 1.42
LEDDVYRKTCT [XPA_Y257_M256V] | 0.604 | 0.39 | 0.291 | 1.14 | 1.17 | 2.14 | 2.23 | 1.09 | 0.724 | 1 | 2.07 | 1.74 | 0.864 | 1.2 | 1.05 | 1.89
LEHCQYVTEKV [ALDOB_Y204] | 0.756 | 0.744 | 0.821 | 1.74 | 0.839 | 1.68 | 1.91 | 1.91 | 1.55 | 1.59 | 2.85 | 1.18 | 1.04 | 0.822 | 1.6 | 1.83
LEKISYVYMKR [SSX7_Y48] | 1.03 | 1.02 | 3.38 | 1.23 | 1.18 | 1.37 | 1.32 | 0.875 | 1.37 | 1.21 | 1.75 | 1.3 | 0.81 | 0.547 | 0.784 | 1.72
LENSTYQYIRV [CRB1_Y760] | 1.55 | 1.72 | 8.46 | 12.1 | 10.9 | 1.11 | 7.65 | 25.5 | 5.02 | 5.14 | 1.86 | 0.91 | 7.03 | 3.07 | 13 | 2.11
LERFIYNREEF [HLA-DPB1_Y59_F64Y_YF] | 0.704 | 0.607 | 0.631 | 0.63 | 1.29 | 1.39 | 1.79 | 0.719 | 0.76 | 1.08 | 1.49 | 0.857 | 0.652 | 2.07 | 0.632 | 1.68
